Series [1] can be described thus: amidolytic activity with plasmin substrate S-2251, steady-state kinetics. The settings on record: substrate S-2251, PBS buffer, pH 7.4, 25° C.; for kcat: for (TAL6003)-plasmin corrected for percent active sites. In kind it is biochemical. How it is done: The amidolytic activity of (TAL6003)-plasmin was examined using the plasmin substrate D-Val-Leu-Lys-p-nitroanilide (S-2251) (DiaPharma, West Chester, Ohio).
Correcting kcat for percent active sites, a kcat of about 725 min^−1 was determined. This value was very close to the value determined in the same assay for full-length plasmin, 820±23 min^−1 and for micro-plasmin (lacking all five kringles), 795±24 min^−1.

The target in series [2] is T1, α2-antiplasmin (Homo sapiens, UniProt P08697).
T1 sequence (P08697 40-491): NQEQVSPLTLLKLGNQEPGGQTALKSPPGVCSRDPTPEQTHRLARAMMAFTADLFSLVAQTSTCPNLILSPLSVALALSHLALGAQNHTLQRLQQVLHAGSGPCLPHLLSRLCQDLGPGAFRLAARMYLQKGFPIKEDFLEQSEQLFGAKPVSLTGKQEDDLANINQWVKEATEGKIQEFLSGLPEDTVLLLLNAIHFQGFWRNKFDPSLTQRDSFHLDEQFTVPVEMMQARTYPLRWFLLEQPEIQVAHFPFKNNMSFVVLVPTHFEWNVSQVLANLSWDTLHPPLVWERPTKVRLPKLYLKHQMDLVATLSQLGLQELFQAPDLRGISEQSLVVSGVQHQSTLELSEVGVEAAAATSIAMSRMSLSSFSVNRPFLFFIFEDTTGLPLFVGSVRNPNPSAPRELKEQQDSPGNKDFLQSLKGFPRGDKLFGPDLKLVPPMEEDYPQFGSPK
The settings on record: from Anonick et al., cited from earlier work.

The target of series [3] is T1, α2-antiplasmin. The series is described as follows: rate of inhibition by α2-antiplasmin (method of Wiman and Collen, S-2251 activity at time points). In kind it is biochemical. The conditions noted are these: 22° C. in PBS buffer, pH 7.4. How it is done: The rate of inhibition of (TAL6003)-plasmin by α2-antiplasmin was determined to be 1.8±0.06×10^7 M^−1 s^−1 using the method of Wiman and Collen (Wiman, B. and D. Collen, Eur. J. Biochem. 84: 573-578 (1978)) in which plasmin and α2-antiplasmin are mixed then assayed for S-2251 activity at specific time points (Table 3).
Literature values are taken from Anonick, et al., Thrombosis Res. 59: 449 (1990). All rates were measured according to the methods published in Anonick, et al.

A short description of series [4]: binding of ε-ACA measured by changes in protein fluorescence. The conditions noted are these: 50 mM Tris, 20 mM NaCl, pH 8.0, 25° C.; 0-50 μM ε-ACA. How it is done:
To further confirm the functionality of kringle 1, the binding of ε-ACA to (TAL6003)-plasminogen was measured by monitoring the associated changes in protein fluorescence as described by Matsuka et al., Eur. J. Biochem. 190: 93-97 (1990) and Douglas et al., J. Biochemistry 41: 3302-3310 (2002), all incorporated herein by reference. Binding of ε-ACA to kringle 1 of (TAL6003)-plasminogen results in a decrease in fluorescence, likely due to quenching of the tryptophan residues which are part of the lysine-binding site.
To monitor this process, 4 μL to 16 μL aliquots of a concentrated solution of ε-ACA were added to 2 mL of 5 μM (TAL6003)-plasminogen in 50 mM Tris buffer containing 20 mM NaCl, pH 8.0, 25° C. The fluorescence was monitored at an excitation wavelength of 298 nm and an emission wavelength of 340 nm in a FLUOROMAX fluorescence spectrophotometer (Jobin Yvon, Inc., Edison, N.J.); after each addition of ε-ACA, the solution was allowed to equilibrate until no further changes in fluorescence were observed.
The resulting fluorescence values were corrected for dilution and plotted versus the concentration of ε-ACA over a range of 0-50 μM ε-ACA.

The target of another series is fibrin. The series can be described thus: fibrin binding microtiter plate assay (activation by tPA and resulting clot lysis). How it is done:
One property of plasminogen is its ability to bind fibrin. In order to determine whether (TAL6003)-plasminogen retains the ability to interact with fibrin, its fibrin-binding properties was tested in a microtiter plate assay in which binding of (TAL6003)-plasminogen to fibrin was assessed by its subsequent activation by tPA and resulting clot lysis. For this purpose, 100 μL of 5 mg/mL fibrinogen was polymerized with thrombin in each well of a microtiter plate. Various concentrations of (TAL6003)-plasminogen was added on top of the fibrin clots and incubated for 1 hour at 37° C. The plate was washed extensively with PBS while the fibrin clots are still intact and attached to the wells. After washing, a 0.1 mg/mL solution of tPA was added to each well and the plate was incubated 2 hours at 37° C. As a result, some of the clots were completely dissolved and some were partially dissolved, while wells with very low amounts of (TAL6003)-plasminogen and control wells remained practically intact. The degree of fibrinolysis was monitored by measuring the 280 nm absorbance of remainders of the initial clots reconstituted in 1 M NaOH. The absorbance values were plotted as a function of (TAL6003)-plasminogen concentration.

The nature of series [5]: binding to lysine-SEPHAROSE 4B column, elution with ε-ACA gradient. How it is done: FIG. 7 is a chromatogram showing binding of (TAL6003)-plasminogen to lysine-SEPHAROSE™ 4B: 0.5 mg of purified (TAL6003)-plasminogen was applied on the lysine-SEPHAROSE™ 4B column (1×3 cm) equilibrated with Tris-buffered saline, pH 7.4. Bound protein was eluted from the column by a 0-20 mM gradient of ε-aminocaproic acid (ε-ACA) as a single peak. The absorbance at 280 nm and the concentration of ε-ACA, as a function of the effluent volume are presented on the graph.
To confirm the functionality of kringle 1, we determined the binding of TAL6003-plasminogen to lysine-SEPHAROSE™ 4B.

Values joined by “and” are separate entries in the source; they are usually repeats but may differ in a detail not shown here. Identical values can stand only once.

B1: plasmin: native full-length human plasmin with five kringle domains and serine protease domain (protein, UniProt P00747 20-580; P00747 581-810, looked up)
Plasmin heavy chain A: EPLDDYVNTQGASLFSVTKKQLGAGSIEECAAKCEEDEEFTCRAFQYHSKEQQCVIMAENRKSSIIIRMRDVVLFEKKVYLSECKTGNGKNYRGTMSKTKNGITCQKWSSTSPHRPRFSPATHPSEGLEENYCRNPDNDPQGPWCYTTDPEKRYDYCDILECEEECMHCSGENYDGKISKTMSGLECQAWDSQSPHAHGYIPSKFPNKNLKKNYCRNPDRELRPWCFTTDPNKRWELCDIPRCTTPPPSSGPTYQCLKGTGENYRGNVAVTVSGHTCQHWSAQTPHTHNRTPENFPCKNLDENYCRNPDGKRAPWCHTTNSQVRWEYCKIPSCDSSPVSTEQLAPTAPPELTPVVQDCYHGDGQSYRGTSSTTTTGKKCQSWSSMTPHRHQKTPENYPNAGLTMNYCRNPDADKGPWCFTTDPSVRWEYCNLKKCSGTEASVVAPPPVVLLPDVETPSEEDCMFGNGKGYRGKRATTVTGTPCQDWAAQEPHRHSIFTPETNPRAGLEKNYCRNPDGDVGGPWCYTTNPRKLYDYCDVPQCAAPSFDCGKPQVEPKKCPGR
Plasmin light chain B: VVGGCVAHPHSWPWQVSLRTRFGMHFCGGTLISPEWVLTAAHCLEKSPRPSSYKVILGAHQEVNLEPHVQEIEVSRLFLEPTRKDIALLKLSSPAVITDKVIPACLPSPNYVVADRTECFITGWGETQGTFGAGLLKEAQLPVIENKVCNRYEFLNGRVQSTELCAGHLAGGTDSCQGDSGGPLVCFEKDKYILQGVTSWGLGCARPNKPGVYVRVSRFVTWIEGVMRNN
modifications: plasmin
notes: native full-length human plasmin with five kringle domains and serine protease domain
In the case of B1, in series [1], the Km (commonly the concentration of substrate that gives half-maximal velocity) was 220 ± 9 µM and the kcat (commonly the maximal rate divided by the concentration of active sites) came out at 13.7 ± 0.383 s⁻¹. The kcat in series [1] (listed as full-length plasmin) is 13.7 ± 0.383 s⁻¹. The “rate of inhibition by α2-antiplasmin (literature value, table)” value with α2-antiplasmin [2] (22° C. in PBS buffer, pH 7.4) was 2.5 ± 0.5 × 10^7 M^−1 s^−1. Also, in the series with α2-antiplasmin [2] (Thrombosis Res. 59: 449 (1990)), the “rate of inhibition by α2-antiplasmin (reported value, text)” value is recorded as 2.5×10^7 M^−s^−1.

B2: micro-plasmin: plasmin species lacking all five kringles (protein)
chain: APSFDCGKPQVEPKKCPGRVVGGCVAHPHSWPWQVSLRTRFGMHFCGGTLISPEWVLTAAHCLEKSPRPSSYKVILGAHQEVNLEPHVQEIEVSRLFLEPTRKDIALLKLSSPAVITDKVIPACLPSPNYVVADRTECFITGWGETQGTFGAGLLKEAQLPVIENKVCNRYEFLNGRVQSTELCAGHLAGGTDSCQGDSGGPLVCFEKDKYILQGVTSWGLGCARPNKPGVYVRVSRFVTWIEGVMRNN
With B2, in the series with α2-antiplasmin [3], the “rate of inhibition by α2-antiplasmin” value is reported as 1.8 ± 0.2 × 10^5 M^−1 s^−1. In series [1], the Km stood at 145 ± 13 µM and the kcat amounted to 13.2 ± 0.4 s⁻¹.

B3: mini-plasmin: activated mini-plasminogen; domain composition K5-SP (kringle 5 and serine protease domain) (protein)
chain: VAPPPVVLLPDVETPSEEDCMFGNGKGYRGKRATTVTGTPCQDWAAQEPHRHSIFTPETNPRAGLEKNYCRNPDGDVGGPWCYTTNPRKLYDYCDVPQCAAPSFDCGKPQVEPKKCPGRVVGGCVAHPHSWPWQVSLRTRFGMHFCGGTLISPEWVLTAAHCLEKSPRPSSYKVILGAHQEVNLEPHVQEIEVSRLFLEPTRKDIALLKLSSPAVITDKVIPACLPSPNYVVADRTECFITGWGETQGTFGAGLLKEAQLPVIENKVCNRYEFLNGRVQSTELCAGHLAGGTDSCQGDSGGPLVCFEKDKYILQGVTSWGLGCARPNKPGVYVRVSRFVTWIEGVMRNN
Take B3: the “rate of inhibition by α2-antiplasmin” value with α2-antiplasmin [3] is 2.4×10^5 M^−1 s^−1 and 2.4 ± 0.5 × 10^5 M^−1 s^−1. Further, in series [1], the Michaelis-Menten constant (Km) was 160 ± 30 µM and the kcat is 12.8 ± 1.17 s⁻¹.

B4: (TAL6003)-plasminogen: recombinant plasminogen deletion mutant, single kringle plus serine protease domain, amino acid sequence SEQ ID NO: 2, expressed in E. coli (protein)
chain: MRDVVLFEKKVYLSECKTGNGKNYRGTMSKTKNGITCQKWSSTSPHRPRFSPATHPSEGLEENYCRNPDNDPQGPWCYTTDPEKRYDYCDVPQCAAPSFDCGKPQVEPKKCPGRVVGGCVAHPHSWPWQVSLRTRFGMHFCGGTLISPEWVLTAAHCLEKSPRPSSYKVILGAHQEVNLEPHVQEIEVSRLFLEPTRKDIALLKLSSPAVITDKVIPACLPSPNYVVADRTECFITGWGETQGTFGAGLLKEAQLPVIENKVCNRYEFLNGRVQSTELCAGHLAGGTDSCQGDSGGPLVCFEKDKYILQGVTSWGLGCARPNKPGVYVRVSRFVTWIEGVMRNN
modifications: Polypeptide having a single N-terminal kringle domain homologous to a kringle domain of a native human plasminogen
As to B4, in series [4], the Kd (commonly the equilibrium constant for the complex coming apart) is about 19 µM. The EC50 at fibrin (1 hour at 37° C. on fibrin clots, then tPA 2 hours, read-out: C50 of fibrin binding) was about 0.3 µM. Moreover, the fibrin binding affinity entry in the series with fibrin (relative to full-length plasminogen) is “comparable to that of full-length plasminogen”. Further, the “ε-ACA concentration at elution peak from lysine-SEPHAROSE” value in series [5] (0-20 mM ε-ACA gradient, single peak) is listed as “about 4 mM”. Further, the “binding to lysine-SEPHAROSE 4B” value in series [5] (column equilibrated with Tris-buffered saline, pH 7.4) is reported as “bound to lysine-SEPHAROSE™”.

The values are drawn from US20120093799A1, “RECOMBINANTLY MODIFIED PLASMIN” (priority 2007, published 2012).
